Test results published in patent US20030175270.

Key:
[1] = biological target: STAT3 immunoprecipitated from BMMC lysates (UniProt P42227)
[2] = biological target: STAT5 immunoprecipitated from BMMC lysates (UniProt Q9JIA0)
[3] = biological target: JAK2 immunoprecipitated from BMMC lysates (tyrosine-phosphorylated) (UniProt Q62120)
[4] = biological target: Tyk2 immunoprecipitated from macrophage lysates (UniProt Q9R117)
[5] = biological target: JAK1 immunoprecipitated from BMMC lysates (UniProt P52332)
[6] = biological target: Lyn immunoprecipitated from BMMC lysates (UniProt P25911)
Lyn immunoprecipitated from BMMC lysates, sequence (P25911 2-512): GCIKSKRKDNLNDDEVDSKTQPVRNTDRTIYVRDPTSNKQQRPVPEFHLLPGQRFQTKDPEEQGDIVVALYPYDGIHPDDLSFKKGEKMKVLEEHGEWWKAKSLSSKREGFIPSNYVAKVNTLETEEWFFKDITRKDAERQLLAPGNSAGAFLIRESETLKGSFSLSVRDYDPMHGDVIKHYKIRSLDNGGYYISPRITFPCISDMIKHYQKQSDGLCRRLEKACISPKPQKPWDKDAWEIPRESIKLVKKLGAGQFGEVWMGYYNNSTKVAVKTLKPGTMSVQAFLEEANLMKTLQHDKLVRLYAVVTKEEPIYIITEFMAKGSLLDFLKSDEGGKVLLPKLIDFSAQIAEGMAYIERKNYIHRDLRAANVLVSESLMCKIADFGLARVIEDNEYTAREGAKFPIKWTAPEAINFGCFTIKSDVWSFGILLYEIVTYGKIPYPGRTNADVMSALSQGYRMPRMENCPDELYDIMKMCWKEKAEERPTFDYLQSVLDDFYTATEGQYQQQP

JAK2 immunoprecipitated from BMMC lysates (tyrosine-phosphorylated), sequence (Q62120 whole entry): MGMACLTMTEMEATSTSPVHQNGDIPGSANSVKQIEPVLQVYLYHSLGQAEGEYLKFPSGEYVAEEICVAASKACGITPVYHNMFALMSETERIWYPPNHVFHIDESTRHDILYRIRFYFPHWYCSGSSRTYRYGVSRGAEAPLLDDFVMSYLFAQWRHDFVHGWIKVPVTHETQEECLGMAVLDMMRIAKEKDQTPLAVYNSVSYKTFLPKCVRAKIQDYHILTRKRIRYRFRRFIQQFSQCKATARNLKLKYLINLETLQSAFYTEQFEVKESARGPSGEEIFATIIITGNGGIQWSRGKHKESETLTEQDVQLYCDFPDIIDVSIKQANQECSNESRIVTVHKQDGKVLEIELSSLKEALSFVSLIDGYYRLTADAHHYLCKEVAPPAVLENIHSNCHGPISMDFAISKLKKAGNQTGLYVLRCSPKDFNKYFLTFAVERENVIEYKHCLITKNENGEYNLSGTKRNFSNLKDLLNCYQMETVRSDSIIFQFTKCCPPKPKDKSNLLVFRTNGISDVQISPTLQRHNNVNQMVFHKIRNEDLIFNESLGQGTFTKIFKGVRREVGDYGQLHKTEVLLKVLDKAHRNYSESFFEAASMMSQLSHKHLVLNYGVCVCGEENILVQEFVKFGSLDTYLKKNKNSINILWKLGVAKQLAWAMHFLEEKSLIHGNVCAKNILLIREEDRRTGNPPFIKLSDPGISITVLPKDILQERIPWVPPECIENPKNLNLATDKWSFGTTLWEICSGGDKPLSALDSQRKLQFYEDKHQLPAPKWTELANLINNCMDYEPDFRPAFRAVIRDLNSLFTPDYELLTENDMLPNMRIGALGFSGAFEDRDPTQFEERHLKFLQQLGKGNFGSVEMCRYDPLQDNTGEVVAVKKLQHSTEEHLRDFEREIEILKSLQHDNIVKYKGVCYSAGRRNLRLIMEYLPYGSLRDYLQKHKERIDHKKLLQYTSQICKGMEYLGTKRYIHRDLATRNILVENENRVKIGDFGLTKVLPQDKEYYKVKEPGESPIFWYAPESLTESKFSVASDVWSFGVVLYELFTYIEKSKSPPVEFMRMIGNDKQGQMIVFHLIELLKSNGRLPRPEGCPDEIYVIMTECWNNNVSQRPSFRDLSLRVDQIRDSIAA
STAT3 immunoprecipitated from BMMC lysates, sequence (P42227 2-770): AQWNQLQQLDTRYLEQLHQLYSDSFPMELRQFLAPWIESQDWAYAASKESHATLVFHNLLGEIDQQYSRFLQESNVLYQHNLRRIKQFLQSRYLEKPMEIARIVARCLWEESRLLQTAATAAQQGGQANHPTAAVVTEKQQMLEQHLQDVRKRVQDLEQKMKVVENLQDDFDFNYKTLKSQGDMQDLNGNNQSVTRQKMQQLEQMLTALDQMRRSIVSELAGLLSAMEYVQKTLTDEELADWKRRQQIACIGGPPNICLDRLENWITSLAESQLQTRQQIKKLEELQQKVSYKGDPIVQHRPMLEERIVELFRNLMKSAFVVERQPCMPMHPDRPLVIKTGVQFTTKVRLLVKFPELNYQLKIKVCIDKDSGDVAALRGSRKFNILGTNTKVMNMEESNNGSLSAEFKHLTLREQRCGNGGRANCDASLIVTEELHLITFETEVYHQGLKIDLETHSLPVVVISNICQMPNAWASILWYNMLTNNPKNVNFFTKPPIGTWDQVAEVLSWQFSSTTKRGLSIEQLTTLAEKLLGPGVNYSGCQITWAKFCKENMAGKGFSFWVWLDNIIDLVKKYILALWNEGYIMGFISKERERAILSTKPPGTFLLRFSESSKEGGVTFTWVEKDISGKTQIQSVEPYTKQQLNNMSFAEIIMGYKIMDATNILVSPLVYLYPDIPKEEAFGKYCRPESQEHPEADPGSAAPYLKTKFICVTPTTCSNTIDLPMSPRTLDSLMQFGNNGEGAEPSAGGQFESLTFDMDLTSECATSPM
JAK1 immunoprecipitated from BMMC lysates, sequence (P52332 whole entry): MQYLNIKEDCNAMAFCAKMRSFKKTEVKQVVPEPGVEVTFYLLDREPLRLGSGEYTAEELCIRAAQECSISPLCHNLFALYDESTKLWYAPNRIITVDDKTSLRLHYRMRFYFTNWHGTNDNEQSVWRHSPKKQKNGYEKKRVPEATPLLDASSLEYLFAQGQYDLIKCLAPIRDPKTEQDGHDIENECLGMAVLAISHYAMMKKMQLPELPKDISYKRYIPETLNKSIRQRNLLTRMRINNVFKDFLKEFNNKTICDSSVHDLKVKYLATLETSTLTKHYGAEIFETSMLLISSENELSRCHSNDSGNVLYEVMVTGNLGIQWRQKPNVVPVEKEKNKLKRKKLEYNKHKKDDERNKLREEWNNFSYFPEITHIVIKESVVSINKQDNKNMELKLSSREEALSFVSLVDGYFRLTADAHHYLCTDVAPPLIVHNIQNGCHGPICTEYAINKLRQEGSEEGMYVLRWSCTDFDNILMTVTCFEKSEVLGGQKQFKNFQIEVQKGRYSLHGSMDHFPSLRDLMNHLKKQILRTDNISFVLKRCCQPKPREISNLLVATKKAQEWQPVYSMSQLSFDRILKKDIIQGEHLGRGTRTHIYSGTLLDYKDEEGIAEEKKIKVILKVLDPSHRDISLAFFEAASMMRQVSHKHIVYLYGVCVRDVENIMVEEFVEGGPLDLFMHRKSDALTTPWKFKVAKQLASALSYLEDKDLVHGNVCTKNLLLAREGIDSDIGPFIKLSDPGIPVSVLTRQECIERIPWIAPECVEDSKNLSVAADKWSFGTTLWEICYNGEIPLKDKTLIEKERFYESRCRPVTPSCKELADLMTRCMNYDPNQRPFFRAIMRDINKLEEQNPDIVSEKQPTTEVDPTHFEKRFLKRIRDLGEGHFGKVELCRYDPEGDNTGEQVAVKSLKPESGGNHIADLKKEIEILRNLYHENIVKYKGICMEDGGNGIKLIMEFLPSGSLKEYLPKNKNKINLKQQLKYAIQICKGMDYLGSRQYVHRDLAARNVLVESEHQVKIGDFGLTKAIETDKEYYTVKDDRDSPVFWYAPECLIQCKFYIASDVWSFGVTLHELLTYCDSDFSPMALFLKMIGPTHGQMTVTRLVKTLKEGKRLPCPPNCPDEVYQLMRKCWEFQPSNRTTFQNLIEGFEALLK

| Substance | tyrosine dephosphorylation in vitro (phosphatase assay, immunoblot) [1] | tyrosine dephosphorylation in vitro (phosphatase assay, immunoblot) [2] | dephosphorylation of critical tyrosine residues in vitro (site-specific phospho-specific antibodies) [3] | tyrosine dephosphorylation in vitro (phosphatase assay, immunoblot) [3] | dephosphorylation of critical tyrosine residues in vitro (site-specific phospho-specific antibodies) [4] | dephosphorylation of critical tyrosine residues in vitro (site-specific phospho-specific antibodies) [5] | tyrosine dephosphorylation in vitro (phosphatase assay, immunoblot) [6] | tyrosine dephosphorylation in vitro (phosphatase assay) [3] |
| --- | --- | --- | --- | --- | --- | --- | --- | --- |
| recombinant CD45 (intracellular dual PTPase domains, Mr 97K, catalytic D1 and non-catalytic D2, lacking extracellular regions) | tyrosine dephosphorylation of STAT3 (FIGS. 3A and 3B) and STAT5 did not occur after incubation with rCD45, even at high concentrations of rCD45 | tyrosine dephosphorylation of STAT3 (FIGS. 3A and 3B) and STAT5 did not occur after incubation with rCD45, even at high concentrations of rCD45 | rCD45 does indeed dephosphorylate the critical tyrosine residues of JAK1, JAK2, and Tyk2 in vitro | rCD45 did, however, dephosphorylate JAK2 in vitro | rCD45 does indeed dephosphorylate the critical tyrosine residues of JAK1, JAK2, and Tyk2 in vitro | rCD45 does indeed dephosphorylate the critical tyrosine residues of JAK1, JAK2, and Tyk2 in vitro | rCD45 dephosphorylated Lyn in a dose-dependent manner | – |
| PTPase-dead rCD45 (D1:C828S mutant) | – | – | – | – | – | – | – | PTPase-dead rCD45 (D1:C828S mutant) did not dephosphorylate JAK2 |
